Results published in patent US20180118840A1 (Eli Lilly, published 2018).

T1: human Dkk-1 (Dickkopf-related protein 1) (human, UniProt O94907 32-266)
T1 sequence (looked up): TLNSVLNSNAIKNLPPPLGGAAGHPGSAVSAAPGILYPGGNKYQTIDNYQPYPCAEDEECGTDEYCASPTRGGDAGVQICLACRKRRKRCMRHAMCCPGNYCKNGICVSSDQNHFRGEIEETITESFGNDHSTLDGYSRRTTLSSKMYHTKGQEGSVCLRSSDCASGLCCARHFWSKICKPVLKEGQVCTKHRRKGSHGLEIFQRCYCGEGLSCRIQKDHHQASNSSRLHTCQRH

T2: human RANKL (receptor activator of nuclear factor kappa-B ligand) (human, UniProt O14788 140-317, limits assumed)
T2 sequence (looked up): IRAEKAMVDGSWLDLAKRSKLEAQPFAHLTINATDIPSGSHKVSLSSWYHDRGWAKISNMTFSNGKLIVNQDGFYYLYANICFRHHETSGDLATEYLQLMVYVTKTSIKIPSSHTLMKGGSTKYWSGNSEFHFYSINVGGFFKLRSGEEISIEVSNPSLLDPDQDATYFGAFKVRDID


Key:
[1] = target: T1, human Dkk-1 (Dickkopf-related protein 1); experiment: cell-based or functional assay
[2] = target: T2, human RANKL (receptor activator of …); experiment: cell-based or functional assay
[3] = target: T1, human Dkk-1 (Dickkopf-related protein 1); experiment: SPR (Biacore 2000), antibody captured on protein A, antigen as analyte, 1:1 model, average of n=3
Protocol: (§1) A CM5 chip (Biacore, pin. BR-100530) containing immobilized protein A (generated using standard NHS-EDC amine coupling) on all four flow cells (Fc) is used to employ a capture methodology. Antibody samples are prepared at 0.2-10 μg/mL by dilution into running buffer. Human Dkk-1 samples are prepared at final concentrations of 100 nM, 50 nM, 25 nM, 12.5 nM, 6.25 nM, 3.125 nM, 1.5625 nM, 0.78125 nM, 0.390625 nM, 0.1953125 nM, and 0 (blank) nM by dilution into running buffer. Human RANKL are prepared at final concentrations of 100 nM, 50 nM, 25 nM, 12.5 nM, 6.25 nM, 3.125 nM, 1.5625 nM, 0.78125 nM, 0.390625 nM, 0.1953125 nM, and 0 (blank) nM by dilution into running buffer.
(§2) Each analysis cycle consists of (1) capturing antibody samples on separate flow cells (Fc2 and Fc3); (2) injection of each human Dkk-1 concentration over all Fc at 50 μL/min for 300 seconds followed by return to buffer flow for 1200 seconds to monitor dissociation phase; (3) injection of each human RANKL concentration over all Fc at 100 μL/min for 150 seconds followed by return to buffer flow for 1800 seconds to monitor dissociation phase; (4) regeneration of chip surfaces with injection of 10 mM glycine, pH 1.5, for 120 seconds at 5 μL/min over all cells; and (5) equilibration of chip surfaces with a 10 μL (60-sec) injection of HBS-EP+. Data are processed using standard double-referencing and fit to a 1:1 binding model using Biacore 2000 Evaluation software, version 2.0.3, to determine the association rate (kₒₙ, M⁻¹s⁻¹ units), dissociation rate (koff, s⁻¹ units), and Rₘₐₓ (RU units). The equilibrium dissociation constant (KD) is calculated from the relationship KD=koff/kₒₙ, and is in molar units.

[4] = target: T2, human RANKL (receptor activator of …); experiment: SPR (Biacore 2000), antibody captured on protein A, antigen as analyte, 1:1 model, average of n=5
Protocol: as §1, §2

EC50, restoration of Wnt3a-induced TCF/LEF luciferase luminescence in MC3T3E1/Topflash cells [1] [nM] | IC50, reduction of RANKL-induced NF-kB driven luciferase luminescence in HEK293 cells expressing human RANK [2] [nM] | Kd [3] [nM] | koff [3] [s⁻¹] | kon [3] [M⁻¹ s⁻¹] | Kd [4] [nM] | koff [4] [s⁻¹] | kon [4] [M⁻¹ s⁻¹] | Binder
6.61 |  |  |  |  |  |  |  | Dkk-1 neutralizing antibody (a Dkk-1 antibody having an IgG4 backbone and the same heavy and light chain variable region sequences as the mAb portion of the … (antibody, V domains shown) VH: EVQLVESGGGLVQPGGSLRLSCAASGFTFSSYTMSWVRQAPGKGLEWVATISGGGFGTYYPDSVKGRFTISRDNAKNSLYLQMNSLRAEDTAVYYCARPGYNNYYFDIWGQGTTVTVSS VL: EIVLTQSPATLSLSPGERATLSCHASDSISNSLHWYQQKPGQAPRLLIYYARQSIQGIPARFSGSGSGTDFTLTISSLEPEDFAVYYCQQSESWPLHFGGGTKVEIK
5.3 | 1.2 | 0.0357 | 6.55e-05 | 1.83e+06 | 0.0874 | 4.2e-05 | 530000 | exemplified bispecific antibody compound of Table 1 (anti-Dkk-1 IgG4 mAb with anti-RANKL scFv linked at the C-terminus of each heavy chain) (bispecific antibody, glycosylated at asparagine residue 296 of SEQ ID NO: 1, also called Exemplified Bispecific Ab) heavy: not shown light: EIVLTQSPATLSLSPGERATLSCHASDSISNSLHWYQQKPGQAPRLLIYYARQSIQGIPARFSGSGSGTDFTLTISSLEPEDFAVYYCQQSESWPLHFGGGTKVEIKRTVAAPSVFIFPPSDEQLKSGTASVVCLLNNFYPREAKVQWKVDNALQSGNSQESVTEQDSKDSTYSLSSTLTLSKADYEKHKVYACEVTHQGLSSPVTKSFNRGEC
